From patent publication US6482410B1, “Cytotactin derivatives that stimulate attachment and neurite outgrowth, and methods of making same” (The Scripps Research Institute, priority 1994, dated 2002)
Entries after “also recorded” stand apart in the source; their conditions may differ.

B1: CTfn3: CT:GST fusion protein, fibronectin type III repeat III, residues 774-864 of SEQ ID NO 4 (protein)
chain: LDAPSQIEAKDVTDTTALITWSKPLAEIEGIELTYGPKDVPGDRTTIDLSEDENQYSIGNLRPHTEYEYEVTLISRRGDMESDPAKEVFVT
modifications: left off: a dimerising Fc or GST
B2: CTfg: CT:GST fusion protein, entire fibrinogen domain, residues 1570-1810 of SEQ ID NO 4 (protein)
chain: SMRSKMIQTVFTTTGLLYPYPKDCSQALLNGEVTSGLYTIYLNGDRTQPLQVFCDMAEDGGGWIVFLRRQNGKEDFYRNWKNYVAGFGDPKDEFWIGLENLHKISSQGQYELRVDLRDRGETAYAVYDKFSVGDAKTRYRLRVDGYSGTAGDSMTYHNGRSFSTFDKDNDSAITNCALSYKGAFWYKNCHRVNLMGRYGDNNHSQGVNWFHWKGHEYSIQFAEMKLRPSSFRNLEGRRKRA
modifications: left off: a dimerising Fc or GST
B3: CTfn6: CT:GST fusion protein, fibronectin type III repeat VI, residues 1318-1398 of SEQ ID NO 4 (protein)
chain: VVGSPKGISFSDITENSARVSWTPPRSRVDSYRVSYVPITGGTPNVVTVDGSKTRTKLVKLVPGVDYNVNIISVKGFEESE
modifications: left off: a dimerising Fc or GST

Experiments:
[1] = system: neurons from chick forebrain; assay: CNS neurite outgrowth, forebrain neurons, 7 hours; assay type: cell-based; details: 7 hour growth period; for % Sprouting: Table 4, FB (forebrain) neurons
Protocol: Dorsal root ganglia (DRG) cells or forebrain neurons were prepared for the cell attachment assays as follows. DRG from day 6 chicken embryos or forebrains from day 7 chicken embryos were dissected into HBSS. The tissue was pelleted by centrifugation and resuspended in CMF-HBSS and incubated at 37° C. for 10 minutes. The tissue was pelleted again and resuspended in CMF-HBSS containing 0.08% trypsin and allowed to trypsinize for 20 minutes at 37° C. An equal volume of DMEM/F12, 10% FCS, 20 ng/ml nerve growth factor (NGF) (for DRG cells only), 10 μg/ml gentamycin (10% medium) was added, and the tissue was pelleted and resuspended in 2 ml of the 10% medium. The cells were triturated with a fire-polished Pasteur pipette for 15 strokes, and the cells were washed and resuspended in 10 ml of 10% medium. DRG cells were plated in a 10 cm tissue culture dish and incubated for 1 hour at 37° C. in 5% CO2, to allow for attachment of contaminating fibroblasts.
After replating, the cells were harvested, pelleted and washed three times in DMEM/F12, 1% fetal calf serum (FCS), 20 ng/ml NGF (for DRG cells only), 10 μg/ml gentamycin (1% medium), and the number of cells determined using a hemocytometer. The DRG were resuspended to a density of 6×10^5 cells/ml in attachment buffer. The neurons were resuspended to a density of 2×10^4 cells/ml in 1% medium and added to substrates and placed at 37° C., 5% CO2 for 15 hours.
After the growth period, the dishes were gently rinsed with PBS to remove unbound cells, fixed with 1% glutaraldehyde, and viewed by phase contrast microscopy. Ten to forty cells were analyzed for each substrate. Cells were judged as neurite-bearing if the length of the processes was greater than one cell diameter. All cells with neurites were photographed with a 20× objective and total neurite length per neurite-bearing cell was derived from the photographic prints. Percentage of neuronal sprouting was calculated from at least six experiments. Neurite length was calculated from at least three experiments.
To investigate whether CNS neurons could also extend neurites on CT/TN and CT/TN fragments, neurons from chick forebrain were plated at low density on CT/TN, CT/TN fragments and polylysine, and analyzed for neurite outgrowth after a 7 hour growth period (a time period found to be optimal for stable neurite outgrowth from these cells). The lengths of neurites on substrates that supported sprouting were essentially the same for the forebrain neurons and were therefore not quantitated further.

[2] = system: chicken fibroblast cell line SL29; assay: Cell attachment assay, fibroblasts on protein-coated solid support; assay type: cell-based; details: for SL29 fibroblast attachment to coated substrate (words): CT coated at 20 μg/ml, binding fragments at 0.75 μM, non-binding at three times that, 1 hour; for spreading of SL29 cells on substrate: coated at 0.75 μM
Protocol: In the cell attachment assays, a single cell suspension was allowed to settle for a fixed period of time onto a solid support that has been coated with the different CT-derived proteins to be tested for cell attachment (Friedlander, et al., J. Cell Biol. 107: 2329-2340 (1988)). After removing the unbound and loosely bound cells by washing, the attachment and morphology of those cells remaining on the dish were analyzed.
Solid supports, consisting of a circular array of CT or CT:GST fusion proteins bound to a dish, were prepared as follows for the cell attachment assay.
For the initial study, non tissue-culture treated polystyrene plates (Falcon 1008) were spotted with 2 μl of a 0.5 to 1.5 μM solution of CT in PBS for 30 minutes to coat a specific area on the dish with CT. CT was isolated from chicken brain or from fibroblast culture supernatant as described in Crossin, PNAS 88: 11403-11407 (1991) and Hoffman et al., J. Cell Biol. 106: 519-532 (1988). CT was placed in a circular array near the center of the dish and incubated at 37° C. for 30 minutes. After CT had adsorbed to the dish, the central portion of the dish was washed once with 250 μl of 20% (w/v) BSA in PBS. Non-specific binding sites on the dish were then blocked with 250 μl of 20% (w/v) BSA in PBS by incubation for 2 to 3 hours at room temperature.
For the subsequent study with the CT:GST fusion proteins, non tissue-culture treated polystyrene plates (Falcon 1008) were spotted with 2 μl of a 0.5 to 1.5 μM solution of CT:GST fusion protein in PBS as prepared in Example 5.A.2 or GST in PBS for 30 minutes to coat a specific area on the dish with CT:GST fusion protein or GST. The proteins to be tested were placed in a circular array near the center of the dish and incubated at 37° C. for 30 minutes. After the proteins adsorbed to the dish, the central portion of the dish was washed once with 250 μl of 20% (w/v) BSA in PBS. Non-specific binding sites on the dish were then blocked with 250 μl of 20% (w/v) BSA in PBS by incubation for 2 to 3 hours at room temperature.
The chicken fibroblast cell line SL29 (ATCC CRL 1590) was grown to confluence in Dulbecco's Minimum Essential Medium (DMEM; Gibco-BRL, Gaithersburg, Mass.) with 10% (v/v) fetal calf serum (FCS; Gibco-BRL) with penicillin and streptomycin. The cells were passaged the night prior to the assay and seeded at a density of 1:2. Cells were harvested in calcium, magnesium-free Hank's balanced salt solution (CMF-HBSS, Gibco-BRL) with 20 mM Hepes buffer and 5 mM EDTA. Harvested cells were washed in attachment buffer (CMF-HBSS with 10 mM Hepes, 1 mM CaCl2, 1 mM MgCl2, 0.1 mM MnCl2, and 2% (w/v) bovine serum albumin (BSA)) three times. The number of cells was quantitated by counting the cells in a hemocytometer. The cells were resuspended in attachment buffer to a density of 6×10^5 cells/ml.
Chicken fibroblasts, DRG, and solid supports (dishes) coated with CT for use in the cell attachment assays were prepared as described in Examples 5.A.2-4, respectively. The chicken fibroblasts and DRG at a density of 6×10^5 cells/ml were added to the prepared dishes and incubated at 37° C. in 5% CO2 for 1 hour. The dishes were then washed three times in PBS with gentle swirling to remove unattached cells, fixed in 1% glutaraldehyde in PBS, and viewed by phase contrast microscopy. The number of bound cells was determined using a 10× objective with an eyepiece reticle. The number of cells was determined in four fields for each fusion protein dot as the number of cells bound per […]. CT was tested in triplicate. The number of cells bound for CT was expressed as the average of the twelve measurements±standard deviation […].
CT, coated at a concentration of 20 μg/ml, was used as a solid support for SL29 fibroblast attachment. […] Fragments of CT were generated using the pGEX fusion protein system, as described in Example 1. The cell attachment assay was performed essentially as described above for the cell attachment assay to intact CT. […]

DRG cells = assay: DRG neurite outgrowth, 40 hour culture, morphology; assay type: cell-based, chicken; details: DRG cells cultured 40 hours
Protocol: In order to assess the effect to the cell binding regions of CT/TN on the outgrowth of neurites from PNS neurons, DRG cells were cultured for 40 hours on popylysine, CTfn3, CTfn6, CTfg, and CTfn3-CTfn6 mixed substrates. The cultures were then fixed and the cell and neurite morphology was analyzed by phase contrast microscopy. The cells were plated on plastic substrates coated with the same concentrations of CTITN and fusion proteins used in the attachment assay.

Row | Molecule | forebrain cell attachment [1] | forebrain neuron sprouting versus polylysine [1] | % Sprouting [1] | SL29 fibroblast attachment to coated substrate (words) [2] | spreading of SL29 cells on substrate [2] | neurite and cell morphology after 40 hours (DRG cells) | SL29 fibroblast attachment to coated substrate (words) ([2]; listed as Ctfn6) | SL29 fibroblast attachment to coated substrate (words) ([2]; listed as sixth repeat)
1 | B1 | did not support forebrain cell attachment | no effect on neurite outgrowth | 0% | robust SL29 cell attachment was supported; also recorded: readily attached; also recorded: attached well | exhibited cell spreading; also recorded: spreading of cells was observed | long fasciculated processes | – | –
2 | B2 | – | not significantly different | 2.2 ± 0.5% | robust SL29 cell attachment was supported; also recorded: readily attached; also recorded: attached well | little or no spreading | basal level of outgrowth | – | –
3 | B3 | promotes attachment | significant increase | 8.7 ± 1.9 % | robust SL29 cell attachment was supported; also recorded: supports both fibroblast and neuronal cell attachment | little or no spreading | moderately long neurites | support fibroblast and neuronal cell attachment | fibroblast attachment activity was localized to the sixth repeat
